Laboratory results: PMC9859762

Target: thin filaments of membrane-permeabilized (skinned) porcine ventricular myofibrils (pig (endogenous in porcine ventricular myofibrils)) (UniProt P42639)
Test: co-sedimentation; 23 ± 3 uM IANBD-labeled Tn incubated 4 h on ice (or overnight) with skinned porcine myofibrils (~20 mg/ml) in hypotonic rigor buffer with 6 mM ATP and 1 mg/ml BSA; myofibrils pelleted at 1,000 x g and washed; labeled cTnC relative to total cTnC on 18% SDS-PAGE (fluorescence against Coomassie)

UniProt P42639, sequence (P42639 whole entry, looked up): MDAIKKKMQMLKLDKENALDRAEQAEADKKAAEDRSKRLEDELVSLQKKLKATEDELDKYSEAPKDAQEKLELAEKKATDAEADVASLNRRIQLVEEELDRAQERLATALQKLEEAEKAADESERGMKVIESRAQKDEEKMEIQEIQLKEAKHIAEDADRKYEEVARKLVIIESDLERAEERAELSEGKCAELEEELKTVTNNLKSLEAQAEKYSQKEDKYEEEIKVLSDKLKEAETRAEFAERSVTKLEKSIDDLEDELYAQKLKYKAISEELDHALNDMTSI

extent of exchange (labeled cTnC relative to total cTnC in the myofibrils): 41%
Substance: human recombinant troponin complex containing IANBD-cTnC^T53C, wild-type cTnI and wild-type cTnT (from UniProt P63316 1-161; P19429 1-210)
